Test results taken from the supplement of paper PMC7877785.
± gives the uncertainty stated by the source.

Assay: self-splicing fitness, log relative to wild type (ln ratio); higher = more splicing; Tetrahymena group I intron in knt gene, E. coli kanamycin selection, DiMSum; sequences stand for … in CUCUCU…GGAGGGAAAAGUUAUCAGGCAUGCACCUGGUAGCUAGUCUUUAAACCAAUAGAUUGCAUCGGUUUAAAAGGCAAGACCGUCAAAUUGCGGGAAAGGGGUCAACAGCCGUUCAGUACCAAGUCUCAGGGGAAACUUUGAGAUGGCCUUGCAAAGGGUAUGGUAAUAAGCUGACGGACAUGGUCCUAACCACGCAGCCAAGUCCUAAGUCAACAGAUCUUCUGUUGAUAUGGAUGCAGUUCACAGACUAAAUGUCGGUCGGGGAAGAUGUAUUCUUCUCAUAAGAUAUAGUCGGACCUCUCCUUAAUGGGAGCUAGCGGAUGAAGUGAUGCAACACUGGAGCCGCUGGGAACUAAUUUGUAUGCGAAAGUAUAUUGAUUAGUUUUGGAGUACUCGUGGUCG
Summary of the method: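 Library with all eight P1ex-region intron nucleotides randomised, intron inside the knt kanamycin-resistance gene on pET-22b(+), in E. coli BL21(DE3). Cells grew overnight at 37°C or 30°C on LB agar with or without 25 μg/mL kanamycin (plus 100 μg/mL carbenicillin, 50 μM IPTG, 0.2% rhamnose), in six replicate transformations. Pooled colonies were amplicon-sequenced on Illumina HiSeq 2500. DiMSum fitness is the error-weighted combination of wild-type-normalised replicate fold changes, kanamycin versus none.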

Sequence | self-splicing fitness (ln) (30 °C) | self-splicing fitness (ln) (37 °C)
UGGAAGCAAUAUUACGUCCG | -2.72 ± 0.21 | -2.41 ± 0.22
CGCAAGCAAUAUUACGCAAG | -2.84 ± 0.31 | -2.2 ± 0.31
CACUAGCAAUAUUACGUAUU | -3.28 ± 0.17 | -2.11 ± 0.15
GUUUAGCAAUAUUACGGCCA | -1.35 ± 0.14 | -0.725 ± 0.15
GUCAAGCAAUAUUACGUAUC | -2.71 ± 0.2 | -0.284 ± 0.16
AGCCAGCAAUAUUACGCUUU | -2.84 ± 0.089 | -0.852 ± 0.086
GGAUAGCAAUAUUACGUUCA | -0.502 ± 0.1 | -0.00255 ± 0.15
UGUUAGCAAUAUUACGGUGA | -1.51 ± 0.18 | -0.192 ± 0.19
AAGAAGCAAUAUUACGUACG | -0.925 ± 0.092 | -0.719 ± 0.11
GAGUAGCAAUAUUACGAUAU | -2.42 ± 0.1 | -1.51 ± 0.14
CCCAAGCAAUAUUACGUGAG | -2.48 ± 0.09 | -0.85 ± 0.08
GAUUAGCAAUAUUACGUGUU | -2.85 ± 0.22 | -1.66 ± 0.14
GAGAAGCAAUAUUACGUGAU | -1.81 ± 0.084 | -0.801 ± 0.11
AUCGAGCAAUAUUACGAGUG | -3.32 ± 0.3 | -2.09 ± 0.32
GGCCAGCAAUAUUACGGCAU | -1.13 ± 0.056 | -0.688 ± 0.066
CAAGAGCAAUAUUACGCAUU | -3.39 ± 0.27 | -2.51 ± 0.21
AAUUAGCAAUAUUACGCUUA | -0.993 ± 0.12 | 0.247 ± 0.14
AACCAGCAAUAUUACGUCCA | -0.505 ± 0.061 | -0.595 ± 0.068
ACAGAGCAAUAUUACGCGAA | -3.58 ± 0.25 | -1.21 ± 0.18
UUCAAGCAAUAUUACGCCAG | 0.732 ± 0.48 | 0.119 ± 0.33
UUAGAGCAAUAUUACGACAU | -1.894 ± 0.018 | -1.19 ± 0.036
ACGAAGCAAUAUUACGGAUU | -1.86 ± 0.087 | -1.67 ± 0.11
UCACAGCAAUAUUACGCUGC | -2.78 ± 0.22 | -2.09 ± 0.23
UAAGAGCAAUAUUACGUGCC | -3.13 ± 0.15 | -3.48 ± 0.34

Sequence | self-splicing fitness (ln) (30 °C) | self-splicing fitness (ln) (37 °C)
UAGCAGCAAUAUUACGUACA | -1.16 ± 0.091 | -0.0473 ± 0.1
GAAGAGCAAUAUUACGCCUU | -2.52 ± 0.37 | -1.55 ± 0.33
GGAGAGCAAUAUUACGGAUG |  | -1.45 ± 0.35
CCCCAGCAAUAUUACGGAUG | -1.96 ± 0.064 | -1.08 ± 0.067
AACAAGCAAUAUUACGAGGA | -1.76 ± 0.14 | -2.42 ± 0.16
AACGAGCAAUAUUACGGUUA | -1.84 ± 0.18 | -0.413 ± 0.15
UCCGAGCAAUAUUACGUCAG | -3.62 ± 0.24 | -1.07 ± 0.17
CCAGAGCAAUAUUACGAUGG | -4.18 ± 0.34 | -2.04 ± 0.27
GUCAAGCAAUAUUACGAUAU | -1.28 ± 0.07 | -0.525 ± 0.078
AAGCAGCAAUAUUACGUCCG | -2.15 ± 0.12 | -1.13 ± 0.11
UCUAAGCAAUAUUACGGGAC | -3.56 ± 0.35 | -2.34 ± 0.4
AACCAGCAAUAUUACGAUUG | -3.19 ± 0.15 | -1.48 ± 0.11
UCAGAGCAAUAUUACGCAAG | -1.74 ± 0.42 | -1.48 ± 0.29
CAUGAGCAAUAUUACGGUUC | -3.65 ± 0.46 | -2.13 ± 0.38
GCCAAGCAAUAUUACGCAAU | -1.35 ± 0.075 | -0.812 ± 0.082
AACAAGCAAUAUUACGACAG | -2.25 ± 0.078 | -1.76 ± 0.09
UUAUAGCAAUAUUACGUGAC | -3.22 ± 0.22 | -0.826 ± 0.22
CGACAGCAAUAUUACGACUA | -2.15 ± 0.13 | 0.027 ± 0.092
CAACAGCAAUAUUACGCAAA | -3.57 ± 0.33 | -2.37 ± 0.14
CACCAGCAAUAUUACGCUUA | -2.24 ± 0.09 | -1.23 ± 0.083
GUAAAGCAAUAUUACGCGCA | 0.459 ± 0.16 | -0.0064 ± 0.17
CAGCAGCAAUAUUACGGCGG | -1.93 ± 0.093 | -1.5 ± 0.16
UAUGAGCAAUAUUACGCAAG | -2.66 ± 0.24 | -1.36 ± 0.23
GCUGAGCAAUAUUACGUGAU | -1.02 ± 0.1 | -1.13 ± 0.14

Sequence | self-splicing fitness (ln) (30 °C) | self-splicing fitness (ln) (37 °C)
UGUAAGCAAUAUUACGCGAG | -3.32 ± 0.27 | -1.56 ± 0.17
UAGGAGCAAUAUUACGGAGA |  | -2.34 ± 0.38
GUGUAGCAAUAUUACGAUAU | -0.699 ± 0.17 | -0.881 ± 0.21
GGGAAGCAAUAUUACGUGGU | -4.31 ± 0.27 | -3.33 ± 0.47
CAACAGCAAUAUUACGAUUU | -0.837 ± 0.067 | -0.69 ± 0.083
CGCAAGCAAUAUUACGUAAG | -0.308 ± 0.067 | 0.113 ± 0.093
CUCCAGCAAUAUUACGGCGC | -3.37 ± 0.18 | -2.81 ± 0.27
UCUGAGCAAUAUUACGCGAU | -3.14 ± 0.27 | -3.02 ± 0.25
CAUAAGCAAUAUUACGCUAG | -3.34 ± 0.16 | -2.4 ± 0.15
CCCAAGCAAUAUUACGACUU | -4.21 ± 0.2 | -2.9 ± 0.17
GGUGAGCAAUAUUACGGUAU | -3.49 ± 0.23 | -3 ± 0.4
UUCGAGCAAUAUUACGGACG | -1.8 ± 0.18 | -1.42 ± 0.24
GCCUAGCAAUAUUACGGCUU | -3.8 ± 0.22 | -1.08 ± 0.16
AUCCAGCAAUAUUACGGCGC | -0.203 ± 0.1 | -0.114 ± 0.14
GUCGAGCAAUAUUACGCAGA | -2.79 ± 0.32 | -1.61 ± 0.39
CGACAGCAAUAUUACGAGCU | -2.86 ± 0.15 | -2.17 ± 0.17
GACUAGCAAUAUUACGCAGC | -3.5 ± 0.23 | -2.2 ± 0.31
UCAAAGCAAUAUUACGGCGG | -0.543 ± 0.063 | -0.0651 ± 0.088
CCUAAGCAAUAUUACGACUG | -1.74 ± 0.15 | -0.483 ± 0.14
GUUUAGCAAUAUUACGUCUG | -2.05 ± 0.18 | -1.84 ± 0.3
GCGUAGCAAUAUUACGAUGA | -0.962 ± 0.13 | 0.16 ± 0.14
UCCUAGCAAUAUUACGACGA | 0.168 ± 0.12 | 0.868 ± 0.17
UGGUAGCAAUAUUACGGACG | 1.33 ± 0.17 | 0.34 ± 0.19
AGCCAGCAAUAUUACGAUCC | -2.27 ± 0.15 | -1.02 ± 0.19

Sequence | self-splicing fitness (ln) (30 °C) | self-splicing fitness (ln) (37 °C)
GCGUAGCAAUAUUACGACUC | 0.552 ± 0.19 | -0.215 ± 0.26
AAUGAGCAAUAUUACGAGCA | -3.45 ± 0.32 | -2.35 ± 0.29
GGAAAGCAAUAUUACGAUAC | 0.424 ± 0.17 | -0.511 ± 0.35
GCCGAGCAAUAUUACGACAC | -1.4 ± 0.12 | -0.338 ± 0.18
GAGAAGCAAUAUUACGCUAC | -3.38 ± 0.18 | -1.58 ± 0.18
UGUGAGCAAUAUUACGGGGU | -3.98 ± 0.21 | -2.75 ± 0.28
UUAAAGCAAUAUUACGUAAU | -2.43 ± 0.12 | -1.91 ± 0.14
GAGAAGCAAUAUUACGAUGA | -1.04 ± 0.12 | -0.334 ± 0.11
UGUGAGCAAUAUUACGCAAC | -2.24 ± 0.28 | -2.4 ± 0.46
UUCUAGCAAUAUUACGUUUA | -1.43 ± 0.16 | -1.45 ± 0.12
GGGAAGCAAUAUUACGGUCG | 0.00025 ± 0.1 | -0.403 ± 0.14
UGGAAGCAAUAUUACGGAAU | -2.76 ± 0.12 | -1.01 ± 0.096
GUAGAGCAAUAUUACGAGCA | -0.443 ± 0.17 | -0.601 ± 0.22
GGAUAGCAAUAUUACGUUCU | -1.88 ± 0.15 | -2.27 ± 0.24
ACUGAGCAAUAUUACGACCG | -1.3 ± 0.17 | -0.981 ± 0.23
UGAAAGCAAUAUUACGCUCA | -1 ± 0.19 | -0.0203 ± 0.25
UCCAAGCAAUAUUACGCGAU | -4.34 ± 0.21 | -2.24 ± 0.17
AACGAGCAAUAUUACGAUCU | -0.758 ± 0.088 | -0.0761 ± 0.1
UCACAGCAAUAUUACGCGAA | -1.74 ± 0.086 | -0.538 ± 0.091
CCGAAGCAAUAUUACGAUCA | -2.35 ± 0.13 | -0.736 ± 0.14
GCUUAGCAAUAUUACGACGU | -0.576 ± 0.13 | 0.408 ± 0.16
UUCUAGCAAUAUUACGUGGU | -4.03 ± 0.34 | -0.962 ± 0.18
UACAAGCAAUAUUACGAGUU | -2.14 ± 0.069 | -0.96 ± 0.074
